Assay results taken from article PMC4683621.
Several values for one entry are separate records, joined by “and”; a condition that tells them apart may be missing. Equal values may be shown once.

Molecular target: wild-type PaCLPP (Podospora anserina (endogenous in P. anserina mitochondria))
Assay: native gel or EMSA; BN-PAGE of mitochondrial protein extracts from P. anserina strains, western blot with a PaCLPP- or HsCLPP-specific antibody

stoichiometry N: 7 and 14
Substance: wild-type PaCLPP (enzyme)
